Measured values: patent EP1865065A1

Key:
Assay in all cases: cell-based or functional assay
[1] = molecular target: murine LFA-3 (CD48) (murine) (UniProt P18181)
[2] = molecular target: murine Intercellular adhesion molecule-1 (ICAM-1, CD54) (murine) (UniProt P13597)
[3] = molecular target: murine B7-1 (CD80) (murine) (UniProt Q00609)
Chain of UniProt Q00609 (Q00609 38-306): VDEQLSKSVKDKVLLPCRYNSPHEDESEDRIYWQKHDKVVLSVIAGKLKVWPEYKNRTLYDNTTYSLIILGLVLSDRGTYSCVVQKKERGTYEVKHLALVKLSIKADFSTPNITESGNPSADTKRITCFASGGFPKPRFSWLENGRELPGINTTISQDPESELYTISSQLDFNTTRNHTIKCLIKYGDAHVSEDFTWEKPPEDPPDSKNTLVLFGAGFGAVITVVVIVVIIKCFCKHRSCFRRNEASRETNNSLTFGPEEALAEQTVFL

Chain of UniProt P18181 (P18181 23-217): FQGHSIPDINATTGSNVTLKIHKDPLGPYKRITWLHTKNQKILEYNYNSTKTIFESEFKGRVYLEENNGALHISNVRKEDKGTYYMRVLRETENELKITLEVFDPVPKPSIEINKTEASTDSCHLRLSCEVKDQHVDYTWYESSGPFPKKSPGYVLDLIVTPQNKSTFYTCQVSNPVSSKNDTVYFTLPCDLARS
Chain of UniProt P13597 (P13597 28-537): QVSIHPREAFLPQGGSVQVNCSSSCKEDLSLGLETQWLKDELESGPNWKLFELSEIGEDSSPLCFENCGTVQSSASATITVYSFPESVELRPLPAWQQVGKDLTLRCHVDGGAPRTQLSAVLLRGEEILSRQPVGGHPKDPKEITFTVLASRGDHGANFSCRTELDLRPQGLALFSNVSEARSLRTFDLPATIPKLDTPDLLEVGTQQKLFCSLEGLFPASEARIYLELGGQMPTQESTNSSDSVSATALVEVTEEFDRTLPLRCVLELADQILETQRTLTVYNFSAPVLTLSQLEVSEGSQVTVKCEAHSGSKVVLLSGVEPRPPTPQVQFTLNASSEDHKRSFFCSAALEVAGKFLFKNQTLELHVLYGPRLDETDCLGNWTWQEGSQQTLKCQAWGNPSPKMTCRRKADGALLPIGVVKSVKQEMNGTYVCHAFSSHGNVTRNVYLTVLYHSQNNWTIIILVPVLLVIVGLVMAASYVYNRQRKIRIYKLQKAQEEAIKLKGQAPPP

Question: How did the reduction of the increased T-cell proliferation (3H-Thymidine) induced by MC38/LFA-3 stimulator cells with Con A [1] turn out when “Hamster anti-murine CD48 (BCM-1; clone HM48-1) (antibody)” was run?
Answer: 98%

Question: “Hamster anti-murine CD54 (ICAM-1; clone 3E2) (antibody)” was tested. Which reduction of the increased T-cell proliferation (3H-Thymidine) induced by MC38/ICAM-1 stimulator cells with Con A [2] did it give?
Answer: 88%

Question: With “Hamster anti-murine CD80 (B7-1; clone 16-10A1) (antibody)” as the substance, how does the inhibition of the increased T-cell proliferation (3H-Thymidine) induced by MC38/B7-1 stimulator cells with Con A [3] read?
Answer: 83%
